Laboratory results published in patent US20210246218A1 (LYVGEN BIOPHARMA SUZHOU, published 2021).
Residue numbers refer to the chain shown, from its start. Numbers in names are those of the source.

B1: humanized anti-CD137 antibody clone 3712 (IgG4 S228P/kappa) (antibody, V domains shown)
VH: QVQLVQSGAEVKKPGASVKVSCKASGYTFAGFEMHWVRQAPGQGLEWMGAIDPKTGGTDYNQKFKDRVTMTRDTSISTAYMELSRLRSDDTAVYYCARDLGYFDVWGQGTLVTVSS
VL: DIQMTQSPSSLSASVGDRVTITCRASQDIRSNLNWYQQKPGGAVKLLIYYTSRLHSGVPSRFSGSGSGTDYTLTISSLQPEDFATYFCQQSEKLPRTFGGGTKVEIRR
B2: humanized anti-CD137 antibody clone 3711 (IgG4 S228P/kappa) (antibody, V domains shown)
VH: B1 VH
VL: B1 VL with G42K, V44P, Y71F, F87Y
B3: reference antibody 371 (murine/human chimeric) (antibody, V domains shown)
VH: QVQLQQSGAELVRPGASVTLSCKASGYTFAGFEMHWIKQTPVHGLGWIGAIDPKTGGTDYNQKFKDKALLTADKSSNTAYMELRSLTSEDSAVYYCTRDLGYFDVWGTGTTVTVSS
VL: DIQMTQTTSSLSASLGDRVTISCRASQDIRSNLNWYQQKPDGTVKLLIYYTSRLHSGVPSRFSGSGSGTDYSLTISNLEQEDIATYFCQQSEKLPRTFGGGTKLEIRR
B4: humanized anti-CD137 antibody clone 3715 (IgG4 S228P/kappa) (antibody, V domains shown)
VH: B1 VH with K12V, E46G, R72A, A97T
VL: B1 VL
B5: humanized anti-CD137 antibody clone 3718 (IgG4 S228P/kappa) (antibody, V domains shown)
VH: B1 VH with K12V, V20L, V37I, E46G, M48I, V68A, M70L, R72A, A97T
VL: B1 VL
B6: humanized anti-CD137 antibody clone 3716 (IgG4 S228P/kappa) (antibody, V domains shown)
VH: B1 VH with K12V, E46G, R72A, A97T
VL: B1 VL with V104L
B7: humanized anti-CD137 antibody clone 3719 (IgG4 S228P/kappa) (antibody, V domains shown)
VH: B1 VH with K12V, V20L, V37I, E46G, M48I, V68A, M70L, R72A, A97T
VL: B1 VL with V104L
B8: humanized anti-CD137 antibody clone 3713 (IgG4 S228P/kappa) (antibody, V domains shown)
VH: B1 VH
VL: B1 VL with V104L
B9: humanized anti-CD137 antibody clone 3714 (IgG4 S228P/kappa) (antibody, V domains shown)
VH: B1 VH with K12V, E46G, R72A, A97T
VL: B1 VL with G42K, V44P, Y71F, F87Y
B10: humanized anti-CD137 antibody clone 3717 (IgG4 S228P/kappa) (antibody, V domains shown)
VH: B1 VH with K12V, V20L, V37I, E46G, M48I, V68A, M70L, R72A, A97T
VL: B1 VL with G42K, V44P, Y71F, F87Y

Target: T1, CD137 protein (UniProt Q07011 24-186, limits assumed)
T1 construct: also called CD137 antigen; CD137 receptor
Assay: BLI (Octet Red 96); reference apparently the parental chimeric antibody 371
Procedure: (§1) The chimeric and humanized antibodies were tested in an antigen binding assay on Octet Red 96 to estimate binding kinetics. Antibodies were loaded onto anti-human Fc (AHC) biosensors. Loaded sensors were dipped into a serial dilution of CD137 protein (300 nM, 1:3 down, 7 points) in assay buffer (PBS with 0.1% BSA, 0.02% Tween-20 (pH 7.2)).

B1 gave a fold higher off-rate of 3 fold.

Target: T1, CD137 protein
Assay: BLI (Octet Red 96), antibody on anti-human Fc sensors, CD137 protein in solution, 1:1 model
Procedure: as §1

In order of falling Kd:
1. B1  10 nM
2. B3  3.9 nM
3. B2  2.4 nM

In order of falling koff:
1. B1  0.0031 s⁻¹
2. B3  0.0011 s⁻¹
3. B2  0.00046 s⁻¹

In order of rising kon:
1. B2  190000 M⁻¹ s⁻¹
2. B3  280000 M⁻¹ s⁻¹
3. B1  310000 M⁻¹ s⁻¹

Target: T1, CD137 protein
Assay: as above
Remark: another data set of the same source
Procedure: as §1, with “KD Measurements of CD137 Antigen Binding were made according to the protocol described in Example 2 above. The” for “The”, “antigen-binding” for “antigen binding”

In order of falling Kd:
1. B1  10 nM
2. B7  8.5 nM
3. B5  8.3 nM
4. B6  7 nM
5. B4  5.9 nM
6. B3  3.9 nM
7. B8  3.8 nM
8. B2  2.5 nM
9. B10  2.3 nM

B4 and B5 are within 1.5-fold of each other in koff: 0.0018 s⁻¹ for the first, 0.0026 s⁻¹ for the second.

B6 and B7 are within 1.5-fold of each other in koff: 0.0022 s⁻¹ for the first, 0.0026 s⁻¹ for the second.

Compared with B2, B8 is 2.4-fold higher in koff: 0.00046 s⁻¹ for the first, 0.0011 s⁻¹ for the second.

Compared with B9, B10 is higher in koff: < 1e-07 s⁻¹ for the first, 0.00034 s⁻¹ for the second.

Compared with B1, B3 is 2.8-fold lower in koff: 0.0031 s⁻¹ for the first, 0.0011 s⁻¹ for the second.

In order of rising kon:
1. B9  130000 M⁻¹ s⁻¹
2. B10  150000 M⁻¹ s⁻¹
3. B2  190000 M⁻¹ s⁻¹
4. B3  280000 M⁻¹ s⁻¹
5. B8  290000 M⁻¹ s⁻¹
6. B4  310000 M⁻¹ s⁻¹
7. B5  310000 M⁻¹ s⁻¹
8. B7  310000 M⁻¹ s⁻¹
9. B1  310000 M⁻¹ s⁻¹
10. B6  320000 M⁻¹ s⁻¹

Target: T1, CD137 protein
Assay: competition ELISA with CD137L: CD137 receptor coated, antibody titrated, CD137L added; A450-A620 falls with the antibody concentration (midpoint of an inhibition curve, called EC50 in the sheet's table)
Procedure: CD137 receptor was diluted in DPBS to 1 μg/mL, and then coated onto an ELISA plate (Corning, Catalog number: 9018, high binding) with a volume of 50 μL (0.05 μg) per well, and incubated at 4° C. overnight. The plate was decanted and washed once; assay diluent was added 200 μL/well. […] The diluted CD137 receptor was added to the assay plate, 50 μL/well, in duplicate. The plate was incubated one hour at room temperature. […] The plate was incubated one hour at room temperature and then washed three times with PBST. Goat anti-human IgG-H+L HRP conjugated at 1:100,000 20 dilution was added to the plate at 100 μL/well. The plate was then incubated one hour at room temperature followed by washing with PBST four times. The TMB substrate solution was added at 100 μL/well. The color was allowed to develop for 15 minutes, and was stopped with 100 μL/well 2N H2SO4. Absorbance at 450 nm and 620 nm was determined by a Tecan F200 Pro reader.

For B3, the EC50 was 0.101 µg/mL.
